Experimental data reported in article PMC9033776.

Assays:
[1] = target: BRD4-bromo2 domain (amino acids 351–457) (UniProt O60885); assay: ITC; 3 mM H2A.Z peptides titrated into 0.3 mM bromodomains; 25 °C; 20 mM Hepes-Na pH 7.5, 100 mM NaCl; One Set of Binding Sites model
[2] = target: BRD4-bromo1 (amino acids 54–168) (UniProt O60885); assay: as above

| Kd [1] | Kd [2] | Substance |
| --- | --- | --- |
| 820 µM | 4810 µM | di-acetylated H2A.Z (1–15) K4acK7ac peptide (from UniProt P0C0S5 2-16) |
| 600 µM | 2270 µM | tri-acetylated H2A.Z (1–15) K4acK7acK11ac peptide (from UniProt P0C0S5 2-16) |
